The source of these data is article PMC8293630.

Assay [1] deals with 1G4 TCRαβ with βA291 (αWT, β Y291A), β-HA and α-FLAG. As to the kind of experiment: co-IP; DDM stability assay (DSA): J76 cells lysed in 0.5% DDM, 150 mM NaCl, 20 mM Tris pH 8.0, 30 min on ice; post-nuclear lysate on anti-HA agarose beads (β-HA) 1 h at 4°C; quantitative immunoblot of β (HA), ε, γ, δ, ζ; ratios normalised to WT; also after A770041 treatment of the cells.
In assay [2] the target is wtc51 TCRαβ (1G4 variant with four mutations in βCDR2), β-HA, in J76 cells.
For assay [3], the target named is 1G4 TCRαβ wild type (HLA-A2-restricted TCR specific for NY-ESO-1 157-165), β-HA and α-FLAG. As to the kind of experiment: co-IP; DDM stability assay (DSA): J76 cells lysed in 0.5% DDM, 150 mM NaCl, 20 mM Tris pH 8.0, 30 min on ice; post-nuclear lysate on anti-HA agarose beads (β-HA) 1 h at 4°C; quantitative immunoblot of β (HA), ε, γ, δ, ζ; ratios normalised to WT; also after A770041 treatment of the cells. On the technique in general: A western blot detects proteins with antibodies after separation by electrophoresis.

In assay [4] the target is QM-α TCRαβ (1G4 variant with mutations in αCDR2, βCDR2 and βCDR3), β-HA, in J76 cells. As to the kind of experiment: pull-down; ζ recovered with ligand-engaged TCR: (9V-A2)4-His bound to intact cells (37°C or 0°C, ± A770041), 0.5% DDM lysis, capture on HisPur cobalt resin; ζ/β2 compared with non-stimulated anti-HA pull-down (= 1).
Assay [5] has as its target wtc51 TCRαβ (1G4 variant with four mutations in βCDR2), β-HA, in J76 cells. The assay is described as above.
Assay [6] addresses 1G4 TCRαβ wild type (HLA-A2-restricted TCR specific for NY-ESO-1 157-165), β-HA and α-FLAG. The following applies: scale: nM.
The target of assay [7] is 1G4 TCRαβ with βA291 (αWT, β Y291A), β-HA and α-FLAG. The following applies: scale: nM.

As to “CD3δ, endogenous in J76 Jurkat cells (from UniProt P04234 22-171) (natural protein)”, the reduction of recovery against 1G4-WT in assay [1] was 10%.

In assay [2], “soluble monovalent 9V-HLA-A2 (biotinylated pMHC monomer) (from UniProt P61769 21-119) (peptide-MHC)” came in with a pErk immunoblot of J76 wtc51 cells, dose response of sm-9V-A2 (Figure S7F) of 3 nM.

Consider “CD3ε, endogenous in J76 Jurkat cells (from UniProt P07766 23-207) (natural protein)”, for which the ε/βT ratio (1G4-WT = 1) (ratio to 1G4-WT) in assay [1] turned out to be 0.5.

In the case of “CD3ζ I38A expressed in J76-1G4WT-ζKO cells (from UniProt P20963-1 22-164) (natural protein)”, the ζ/β2 ratio (ζWT = 1) in assay [3] was 0.05 ratio to ζWT.

Regarding “CD3ζ I41A expressed in J76-1G4WT-ζKO cells (from UniProt P20963-1 22-164) (natural protein)”, in assay [3], the ζ/β2 ratio (ζWT = 1) was 0.25 ratio to ζWT.

For “CD3ζ (ζζ), endogenous in J76 Jurkat cells (from UniProt P20963-1 22-164) (natural protein)”, the reduction of the ζ/β2 ratio of liganded against unliganded TCR in assay [4] came out at 40%. The ζ/β2 ratio of liganded against unliganded TCR (= 1) (ratio to unliganded wtc51) in assay [5] came to 0.5. In addition, the ζ/β2 ratio (1G4-WT = 1) (ratio to 1G4-WT) in assay [1] is 0.2.

With “CD3γ, endogenous in J76 Jurkat cells (from UniProt P09693 23-182) (natural protein)”, the reduction of recovery against 1G4-WT in assay [1] was 40%.

As to “6V-HLA-A2 tetramer on phycoerythrin-conjugated streptavidin (from UniProt P61769 21-119) (peptide-MHC)”, the pErk MFI (flow cytometry) of CD8- J76 cells against (6V-A2)4 nM, EC50 of the non-linear regression fit was found to be 19.5 in assay [6] and 19 in assay [7].
